Measured values published in article PMC9651861 (Science Advances, 2022).

B1: DesAb-RBD-C2 (VHH)
VHH: EVQLEESGGGLVQPGGSLRLSCAASGFNIKDTYIGWVRQAPGKGEEWVASIYPTSGYTRYADSVKGRFTISADTSKNTAYLQMNSLRAEDTAVYYCAAGSVVADLSVEEFDYWGQGTLVTVSS
B2: DesAb-RBD-C1 (VHH)
VHH: EVQLEESGGGLVQPGGSLRLSCAASGFNIKDTYIGWVRQAPGKGEEWVASIYPTSGYTRYADSVKGRFTISADTSKNTAYLQMNSLRAEDTAVYYCAAGSGSSATEVYEEFDYWGQGTLVTVSS

Target: T1, human serum albumin (Homo sapiens, UniProt P02768)
T1 construct: also called HSA
Assay: BLI
Conditions: both partners purified

| Binder | binding result |
| --- | --- |
| B1 | no binding |
| B2 | no binding |
